Target: T1, 2-trans-octenoyl-ACP, P0A6A8
T1 chain: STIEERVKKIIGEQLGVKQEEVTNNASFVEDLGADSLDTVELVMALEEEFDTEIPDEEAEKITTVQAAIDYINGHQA

B1: Rv0636 protein of M. tuberculosis H37Rv fused with the N-terminal polyhistidine tag (protein)
chain: HHHHHHMALREFSSVKVGDQLPEKTYPLTRQDLVNYAGVSGDLNPIHWDDEIAKVVGLDTAIAHGMLTMGIGGGYVTSWVGDPGAVTEYNVRFTAVVPVPNDGKGAELVFNGRVKSVDPESKSVTIALTATTGGKKIFGRAIASAKLA
- specific activity (hydration followed at 263 nm), 2 µM substrate, 311 nM enzyme: no activity of the Rv0636 homodimer could be detected in the presence of octenoyl-ACP

Source: US20100143940A1, “(3R)-HYDROXYACYL-ACP DEHYDRATASE ENZYMES USED IN THE BIOSYNTHESIS OF MYCOLIC ACIDS AND USE OF SAME FOR SCREENING ANTIBIOTICS” (priority 2007, published 2010)
